Test results published in PMC8882007, “Syndapin-2 mediated transcytosis of amyloid-β across the blood–brain barrier” (Brain Communications, 2022).

How the values were obtained:
[1] = Thioflavin T (ThT) fluorescence assay of Aβ assemblies; format: physicochemical; details: Aβ preparation 10 µM in PBS with ThT 50 µM, 37°C, 450/485 nm; n = 3
Description: Aβ assemblies were prepared according to previously described protocols.[48],[49] Briefly, Aβ (1–40) peptide was dissolved in hexafluoro-2-propanol at 1 mM, vortexed and bath sonicated to obtain a homogenous solution, and aliquoted to microcentrifuge tubes. HIPF was removed by overnight evaporation and, once all solvent was removed, Aβ (1–40) films were stored at −80°C until further processed. Peptide films were then resuspended in dimethyl sulfoxide (DMSO) to 5 mM, bath sonicated for 10 min and vortexed for 30 s. […] Immediately before use, the oligomeric solutions were centrifuged at 14 000 g for 10 min at 4°C (to remove any fibrils that might be present), and the supernatant was diluted to the final experimental concentration. […] Monomeric Aβ was obtained by dissolving the peptide directly in DMSO at 1 mM. […] Aβ assemblies were characterized by measuring ThT fluorescence and transmission electron microscopy (TEM). […] Briefly, each Aβ preparation (20 µl, 10 µM) was incubated with ThT solution (80 µl, 50 µM) at 37°C and then the fluorescence of ThT was measured at 450/485 nm in a 96-well plate using a Spark Multimode microplate reader (Tecan). […] Images were recorded using a direct detection camera K2 IS from Gatan working in counted mode to allow for the sensitive Aβ structures to be imaged at low electron doses without beam damage. […]

LRP1/Rab5 = biological target: T1, LRP1/Rab5 (Mus musculus, UniProt Q91ZX7); assay: Proximity ligation assay LRP1/Rab5 in BECs treated with Aβ assemblies; format: cell-based; details: Aβ assemblies at 100 nM for 15 min (Fig. 6B2)
T1 construct: endogenous in cells; host or cells: bEnd3 (ATCC CRL-2299)
T1 sequence (Q91ZX7 20-3944 limits assumed): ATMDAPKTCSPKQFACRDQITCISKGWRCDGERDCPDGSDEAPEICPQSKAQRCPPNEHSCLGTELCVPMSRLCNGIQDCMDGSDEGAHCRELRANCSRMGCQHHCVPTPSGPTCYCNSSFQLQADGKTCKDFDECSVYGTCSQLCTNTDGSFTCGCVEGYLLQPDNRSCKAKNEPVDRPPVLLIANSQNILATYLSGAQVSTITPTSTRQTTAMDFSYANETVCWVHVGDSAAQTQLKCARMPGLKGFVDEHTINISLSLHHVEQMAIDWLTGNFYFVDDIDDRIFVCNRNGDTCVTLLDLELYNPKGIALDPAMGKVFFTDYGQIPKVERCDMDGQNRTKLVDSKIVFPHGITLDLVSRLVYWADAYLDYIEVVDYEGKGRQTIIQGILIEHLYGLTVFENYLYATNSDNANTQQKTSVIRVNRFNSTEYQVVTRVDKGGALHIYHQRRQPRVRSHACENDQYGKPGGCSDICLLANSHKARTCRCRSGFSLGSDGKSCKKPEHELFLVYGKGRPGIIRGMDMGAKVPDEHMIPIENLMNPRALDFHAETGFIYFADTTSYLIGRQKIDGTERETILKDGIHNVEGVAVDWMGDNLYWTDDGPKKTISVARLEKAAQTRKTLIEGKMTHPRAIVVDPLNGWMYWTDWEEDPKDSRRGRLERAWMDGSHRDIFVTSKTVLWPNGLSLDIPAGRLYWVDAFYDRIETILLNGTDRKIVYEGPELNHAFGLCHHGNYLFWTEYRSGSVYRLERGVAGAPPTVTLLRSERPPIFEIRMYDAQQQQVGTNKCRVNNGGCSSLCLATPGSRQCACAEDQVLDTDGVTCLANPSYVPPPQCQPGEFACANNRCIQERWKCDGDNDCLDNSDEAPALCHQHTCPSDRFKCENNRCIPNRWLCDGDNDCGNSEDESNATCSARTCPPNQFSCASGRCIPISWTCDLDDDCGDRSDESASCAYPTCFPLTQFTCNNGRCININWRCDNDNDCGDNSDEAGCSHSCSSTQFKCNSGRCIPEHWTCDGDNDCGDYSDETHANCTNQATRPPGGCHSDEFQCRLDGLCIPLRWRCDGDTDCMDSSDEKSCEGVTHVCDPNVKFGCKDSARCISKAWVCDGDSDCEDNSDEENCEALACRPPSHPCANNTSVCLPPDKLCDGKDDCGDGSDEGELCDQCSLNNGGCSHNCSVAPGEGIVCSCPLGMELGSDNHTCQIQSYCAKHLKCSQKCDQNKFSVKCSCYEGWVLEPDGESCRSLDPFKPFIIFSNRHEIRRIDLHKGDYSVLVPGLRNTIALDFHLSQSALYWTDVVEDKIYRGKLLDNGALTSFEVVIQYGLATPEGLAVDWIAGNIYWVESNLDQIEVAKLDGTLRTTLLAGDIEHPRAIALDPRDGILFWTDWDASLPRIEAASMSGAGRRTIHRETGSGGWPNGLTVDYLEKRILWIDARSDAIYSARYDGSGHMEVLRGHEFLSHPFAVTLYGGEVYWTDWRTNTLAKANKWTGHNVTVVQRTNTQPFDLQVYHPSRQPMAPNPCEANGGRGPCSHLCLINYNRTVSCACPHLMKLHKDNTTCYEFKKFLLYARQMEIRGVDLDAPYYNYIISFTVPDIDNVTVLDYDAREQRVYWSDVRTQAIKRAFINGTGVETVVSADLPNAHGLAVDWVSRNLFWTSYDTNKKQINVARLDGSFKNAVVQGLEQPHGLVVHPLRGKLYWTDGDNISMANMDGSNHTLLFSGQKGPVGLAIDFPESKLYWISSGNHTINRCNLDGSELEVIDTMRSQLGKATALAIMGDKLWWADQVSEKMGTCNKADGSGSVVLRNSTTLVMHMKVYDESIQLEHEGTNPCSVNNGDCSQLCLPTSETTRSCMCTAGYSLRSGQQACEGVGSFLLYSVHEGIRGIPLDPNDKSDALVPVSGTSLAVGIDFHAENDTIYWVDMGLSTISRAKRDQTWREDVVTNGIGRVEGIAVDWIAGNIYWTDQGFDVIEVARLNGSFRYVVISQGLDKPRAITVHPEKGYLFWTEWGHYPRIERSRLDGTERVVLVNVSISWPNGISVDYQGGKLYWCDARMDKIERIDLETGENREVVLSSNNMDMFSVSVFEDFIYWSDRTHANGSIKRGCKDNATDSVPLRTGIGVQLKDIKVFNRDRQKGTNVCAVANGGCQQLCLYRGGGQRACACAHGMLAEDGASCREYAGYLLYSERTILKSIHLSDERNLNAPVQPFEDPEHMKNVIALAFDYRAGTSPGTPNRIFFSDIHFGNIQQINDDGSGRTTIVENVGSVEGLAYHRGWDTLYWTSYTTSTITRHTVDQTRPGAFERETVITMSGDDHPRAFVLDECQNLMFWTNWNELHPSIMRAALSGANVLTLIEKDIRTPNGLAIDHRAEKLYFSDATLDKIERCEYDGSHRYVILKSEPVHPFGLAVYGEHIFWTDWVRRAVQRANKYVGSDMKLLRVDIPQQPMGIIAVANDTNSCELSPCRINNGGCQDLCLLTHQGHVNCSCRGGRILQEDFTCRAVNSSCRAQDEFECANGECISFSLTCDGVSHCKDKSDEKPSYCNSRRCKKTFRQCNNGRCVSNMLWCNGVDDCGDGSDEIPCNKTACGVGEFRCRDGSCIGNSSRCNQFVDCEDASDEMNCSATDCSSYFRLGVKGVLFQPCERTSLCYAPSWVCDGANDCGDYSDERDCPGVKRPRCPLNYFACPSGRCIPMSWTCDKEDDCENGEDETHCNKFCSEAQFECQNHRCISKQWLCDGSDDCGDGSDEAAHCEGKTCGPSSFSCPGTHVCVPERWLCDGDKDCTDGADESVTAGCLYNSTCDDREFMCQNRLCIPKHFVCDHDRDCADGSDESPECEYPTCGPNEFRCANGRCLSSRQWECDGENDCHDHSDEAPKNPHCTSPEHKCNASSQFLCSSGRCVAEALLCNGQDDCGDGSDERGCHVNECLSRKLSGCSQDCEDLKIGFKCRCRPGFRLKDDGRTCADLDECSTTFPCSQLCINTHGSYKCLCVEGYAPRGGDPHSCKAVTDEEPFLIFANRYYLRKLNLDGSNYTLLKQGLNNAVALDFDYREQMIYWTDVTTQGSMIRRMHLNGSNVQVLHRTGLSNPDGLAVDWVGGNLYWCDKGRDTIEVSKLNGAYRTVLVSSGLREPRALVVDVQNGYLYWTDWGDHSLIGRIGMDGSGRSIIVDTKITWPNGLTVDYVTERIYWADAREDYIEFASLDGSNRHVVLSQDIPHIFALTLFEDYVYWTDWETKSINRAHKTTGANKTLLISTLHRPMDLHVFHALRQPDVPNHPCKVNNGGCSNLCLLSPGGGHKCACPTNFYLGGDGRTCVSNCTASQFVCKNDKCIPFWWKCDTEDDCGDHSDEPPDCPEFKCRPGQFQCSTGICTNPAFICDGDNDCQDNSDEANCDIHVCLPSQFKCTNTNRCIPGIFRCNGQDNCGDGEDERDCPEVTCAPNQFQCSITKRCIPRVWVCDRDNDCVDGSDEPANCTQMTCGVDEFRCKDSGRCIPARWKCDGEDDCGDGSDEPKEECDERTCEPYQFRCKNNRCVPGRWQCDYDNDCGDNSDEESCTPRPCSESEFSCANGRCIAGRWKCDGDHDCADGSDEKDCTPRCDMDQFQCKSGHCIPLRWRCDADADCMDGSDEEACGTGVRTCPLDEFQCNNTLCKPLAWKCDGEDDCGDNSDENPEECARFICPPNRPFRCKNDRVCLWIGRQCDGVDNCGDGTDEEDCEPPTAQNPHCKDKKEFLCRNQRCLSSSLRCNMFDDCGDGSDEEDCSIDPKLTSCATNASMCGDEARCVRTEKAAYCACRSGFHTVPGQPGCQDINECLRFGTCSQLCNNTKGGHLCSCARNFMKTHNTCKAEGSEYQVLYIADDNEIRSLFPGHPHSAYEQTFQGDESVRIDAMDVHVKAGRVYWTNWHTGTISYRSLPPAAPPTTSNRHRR
T1 sequence (Q91ZX7 3945-4545 limits assumed): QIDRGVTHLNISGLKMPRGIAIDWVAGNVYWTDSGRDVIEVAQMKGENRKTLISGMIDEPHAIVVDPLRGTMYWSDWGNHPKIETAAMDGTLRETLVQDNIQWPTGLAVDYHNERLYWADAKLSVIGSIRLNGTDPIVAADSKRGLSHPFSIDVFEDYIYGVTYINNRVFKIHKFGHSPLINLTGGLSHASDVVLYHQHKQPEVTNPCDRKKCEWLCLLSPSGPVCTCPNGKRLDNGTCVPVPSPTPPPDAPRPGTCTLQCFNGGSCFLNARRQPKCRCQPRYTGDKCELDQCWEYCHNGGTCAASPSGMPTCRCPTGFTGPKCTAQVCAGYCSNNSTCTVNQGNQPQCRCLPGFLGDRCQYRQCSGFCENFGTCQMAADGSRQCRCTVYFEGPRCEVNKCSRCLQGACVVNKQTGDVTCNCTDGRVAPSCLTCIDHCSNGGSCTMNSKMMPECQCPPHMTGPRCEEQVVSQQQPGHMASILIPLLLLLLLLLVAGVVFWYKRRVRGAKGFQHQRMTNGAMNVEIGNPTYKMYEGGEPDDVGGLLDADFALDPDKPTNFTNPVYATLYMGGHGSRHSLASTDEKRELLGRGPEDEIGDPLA
Description: (§1) Polarized bEnd3 were washed twice with PBS, fixed in 4% (w/v) PFA in PBS for 15 min and permeabilized with 0.1% (w/v) Triton X-100 in PBS for 10 min. PLA was carried out by using Duolink probes and detection reagents according to the supplier’s instructions. Briefly, monolayers were incubated with Duolink blocking solution for 1 h at 37°C and then incubated with the two antibodies targeting each protein of interest overnight at 4°C. Subsequently, cells were incubated with Duolink PLA probes (anti-rabbit and anti-mouse) for 1 h at 37°C, washed and incubated with Duolink ligase and polymerase enzymes for 30 and 100 min, respectively. As a negative control, PLA protocol was followed with the exception of the addition of the primary antibodies to determine the specificity of the PLA probes. Nuclei were counterstained by incubation with DAPI for 10 min. Membranes were mounted in glass coverslips using Vectashield Mounting Media. Images were acquired using a Leica TCS SP8 confocal microscope, via sequential scan to reduce fluorophore bleed-through, with a 63× oil immersion objective. z-stacks (10–20 stacks per sample) were collected (20 optical sections) and fluorescence intensity of the PLA signal was quantified using ImageJ. The abundance of PLA signal was normalized by the number of nuclei in each z-stack image. List of antibodies in Supplementary material.
Cell metabolic activity of BECs was assessed by using the RealTime-Glo™ MT Cell Viability Assay. Cells were seeded in 96-well plates at a density of 10 000 cells per well and incubated with Aβ assemblies at concentrations ranging 0.001–1 µM for 1 and 24 h. RealTime-Glo™ MT Assay was carried out according to the supplier’s instructions. […] To evaluate the effect of Aβ assemblies in the expression of LRP1, cells were treated for 2 h with Aβ at 10 µM and then, cells were collected and analysed by Western blotting, as described above.

LRP1 = biological target: T2, LRP1 (Mus musculus, UniProt Q91ZX7); assay: LRP1 expression in BECs treated with Aβ assemblies (Western blot); format: cell-based; details: 100 nM for 2 h, normalised to GAPDH and untreated cells, n = 3
T2 construct: endogenous in cells; host or cells: bEnd3 (ATCC CRL-2299)
Description: Polarized bEnd3 were washed twice with PBS and RIPA buffer containing protease inhibitors (1:50) was added directly to the transwell membranes and left on ice for 1 h. Cells were collected, centrifuged and the supernatant was collected for Western blot analysis. WT, KO and APP-PS1 mice were anaesthetized, decapitated and the brains were carefully collected from the skull. Brains were homogenized in a 4-fold excess volume of ice-cold buffer solution: 10 mM HEPES, 141 mM NaCl, 4 mM KCl, 2.8 mM CaCl2, 1 mM MgSO4, 1 mM NaH2PO4 and 10 mM glucose (pH 7.4) in a glass homogenizer (10–15 strokes). Microvessels and capillary-depleted fractions were prepared from WT, KO and APP-PS1 mice brains, as previously described.[28] Homogenate was suspended in an equal volume of 26% (w/v) dextran (64–76 kDa), mixed and centrifuged at 15 800 g for 10 min at 4°C. Pellet containing the brain microvessels was carefully separated from the supernatant containing capillary-depleted brain (parenchyma). Both fractions, microvessels and parenchyma, were washed twice in ice-cold buffered solution by centrifugation at 15 800 g for 10 min. Brain microvessels and parenchyma fractions were resuspended in RIPA lysis buffer containing protease inhibitors, centrifuged for 20 min, and the supernatant used for Western blot analysis. Protein levels in the lysates were determined using a BCA Protein Assay Kit. Lysates were mixed with Laemmli sample buffer, and proteins (25 µg) were separated on 10% SDS polyacrylamide gels and transferred to polyvinylidene difluoride (PVDF) membranes. All membranes were blocked with 5% (w/v) non-fat milk in Tris-buffered saline (TBS) containing 0.1% (w/v) Tween-20 (TBS-T) for 1 h and then incubated at 4°C with the primary antibody overnight. After washing with TBS-T three times for 5 min, membranes were incubated with the corresponding secondary antibody for 1 h at room temperature, washed with TBS-T and imaged using an Odyssey CLx (LI-COR Biosciences). […]
Cell metabolic activity of BECs was assessed by using the RealTime-Glo™ MT Cell Viability Assay. […]

[2] = Transmission electron microscopy of Aβ assemblies; format: physicochemical; details: negative staining, ∼0.5 mg ml^−1 dispersion
Description: Peptide films were then resuspended in dimethyl sulfoxide (DMSO) to 5 mM, bath sonicated for 10 min and vortexed for 30 s. […] Immediately before use, the oligomeric solutions were centrifuged at 14 000 g for 10 min at 4°C (to remove any fibrils that might be present), and the supernatant was diluted to the final experimental concentration. […] TEM imaging was performed using a JOEL JEM-2200FS microscope equipped with a field emission gun at 200 kV, and an in-column Omega filter. TEM microscope was used in energy-filtered mode with the slit inserted to increase image contrast by collecting only elastically scattered electrons. Digital Micrograph™ software (version 3.20) was used for image acquisition and processing. […] For sample preparation, 400 mesh copper grids were glow-discharged for 40 s to render them hydrophilic. […] The grid was blotted with filter paper and immersed in Uranyless staining solution for 40 s for negative staining. The grid was blotted again and dried under vacuum for 1 min.

LRP1/syndapin-2 = biological target: T3, LRP1/syndapin-2 (Mus musculus, UniProt Q91ZX7); assay: Proximity ligation assay LRP1/syndapin-2 in BECs treated with Aβ; format: cell-based; details: Aβ assemblies at 100 nM for 15 min (Fig. 6B1)
T3 construct: endogenous in cells; host or cells: bEnd3 (ATCC CRL-2299), polarized
T3 sequence (Q91ZX7 20-3944 limits assumed): as the sequence (Q91ZX7 20-3944 limits assumed) above
T3 sequence (Q91ZX7 3945-4545 partner limits assumed): as the sequence (Q91ZX7 3945-4545 limits assumed) above

syndapin-2 = assay: Proximity ligation assay Aβ/syndapin-2 in BECs treated with Aβ assemblies; format: cell-based, mouse; details: Aβ assemblies at 100 nM for 15 min (Fig. 6C1)
Description: as §1, with “Nuclei were counterstained by incubation with DAPI for 10 min. Membranes were mounted in glass coverslips using Vectashield Mounting Media.” left out, “The abundance of PLA signal was normalized by the number of nuclei in each z-stack image. List of antibodies in Supplementary material.” left out
Cell metabolic activity of BECs was assessed by using the RealTime-Glo™ MT Cell Viability Assay. […] To evaluate the effect of Aβ assemblies in the expression of LRP1, cells were treated for 2 h with Aβ at 10 µM and then, cells were collected and analysed by Western blotting, as described above.

| LRP1/Rab5 association (PLA) (LRP1/Rab5) | Reduction in the expression levels of LRP1 (LRP1) [fold] | LRP1 expression (LRP1) | LRP1/syndapin-2 interaction (PLA), comparison among assemblies (LRP1/syndapin-2) | Substance | ThT fluorescence intensity (fibril structure) [1] | Thickness of fibrils (TEM) [2] [nm] | Morphology (TEM) [2] | Association of Aβ with syndapin-2 (PLA) (syndapin-2) |
| --- | --- | --- | --- | --- | --- | --- | --- | --- |
| favour LRP1/Rab5 association | 2 | – | – | Aβ fibrils: Aβ (1–40) fibrils prepared in cold 10 mM HCl, incubated at 37°C for 24 h | characteristic increase in the fluorescence intensity of ThT | ~10 | – | – |
| favour LRP1/Rab5 association | – | unaltered | – | Aβ monomers: Monomeric Aβ obtained by dissolving the Aβ (1–40) peptide directly in DMSO at 1 mM | – | – | small assemblies and agglomerates | – |
| decrease | – | unaltered | highest increase | Aβ oligomers: Aβ (1–40) oligomers formed in PBS at 4°C for 24 h, supernatant after centrifugation | – | – | – | more associated with syndapin-2 |
